Measurements taken from patent US20240358755A1 (IMMATICS BIOTECHNOLOGIES, published 2024).

molecular target: T1, HLA-A*03:01 (human); assay: UV peptide exchange, anti-b2m ELISA; exchange yield grade
T1 construct: Peptide-receptive MHC class I monomer in the UV-ligand exchange assay
From the text: Candidate peptides for T cell based therapies according to the present invention were further tested for their MHC binding capacity (affinity). The individual peptide-MHC complexes were produced by UV-ligand exchange, where a UV-sensitive peptide is cleaved upon UV-irradiation and exchanged with the peptide of interest as analyzed. Only peptide candidates that can effectively bind and stabilize the peptide-receptive MHC molecules prevent dissociation of the MHC complexes. To determine the yield of the exchange reaction, an ELISA was performed based on the detection of the light chain (β2m) of stabilized MHC complexes. The assay was performed as generally described in Rodenko et al. (Rodenko et al., 2006).
96 well MAXISorp plates (NUNC) were coated over night with 2 μg/ml streptavidin in PBS at room temperature, washed 4× and blocked for 1 h at 37° C. in 2% BSA containing blocking buffer. […] Peptide-MHC monomers of the UV-exchange reaction were diluted 100-fold in blocking buffer. Samples were incubated for 1 h at 37° C., washed four times, incubated with 2 μg/ml HRP conjugated anti-β2m for 1 h at 37° C., washed again and detected with TMB solution that is stopped with […]. Absorption was measured at 450 nm.

**Q.** For ILAASFQAR, which peptide exchange yield is on record?
**A.** 50 to 75%

**Q.** How did the peptide exchange yield turn out when AVFVNWEQTKK was run?
**A.** ≥ 75%

**Q.** With ATNSFLLIK as the binder, how does the peptide exchange yield read?
**A.** ≥ 75%

**Q.** For GTFIAPVMK, which peptide exchange yield is on record?
**A.** ≥ 75%

**Q.** Which peptide exchange yield does the source give for RIVTYIVAK here?
**A.** 50 to 75%

**Q.** Which peptide exchange yield does the source give for TVTSAIVNR here?
**A.** 50 to 75%

**Q.** Which peptide exchange yield does the source give for RVIEVVMNSK here?
**A.** ≥ 75%

**Q.** For SMNSKALRWK, which peptide exchange yield is on record?
**A.** 50 to 75%

**Q.** For KVLVDFLLK, which peptide exchange yield is on record?
**A.** 50 to 75%

**Q.** Which peptide exchange yield does the source give for IVFLLQQGEK here?
**A.** 50 to 75%

**Q.** For LIYIPTNSIYK, which peptide exchange yield is on record?
**A.** ≥ 75%

**Q.** SVISVLTTPK was tested. Which peptide exchange yield did it give?
**A.** ≥ 75%

**Q.** KTIDLVIVR was tested. Which peptide exchange yield did it give?
**A.** ≥ 75%

**Q.** For KIMEILNLK, which peptide exchange yield is on record?
**A.** ≥ 75%

**Q.** How did the peptide exchange yield turn out when ILQLITVNR was run?
**A.** 50 to 75%

**Q.** AVLGALLRH was tested. Which peptide exchange yield did it give?
**A.** ≥ 75%

**Q.** How did the peptide exchange yield turn out when GTVFVLLSK was run?
**A.** 20 to 50%

**Q.** With SVFSLVHLFDK as the binder, how does the peptide exchange yield read?
**A.** ≥ 75%

**Q.** RLCPAAPTGK was tested. Which peptide exchange yield did it give?
**A.** ≥ 75%

**Q.** For LALLGAPPPK, which peptide exchange yield is on record?
**A.** 20 to 50%

**Q.** LIAGLIFLK was tested. Which peptide exchange yield did it give?
**A.** 50 to 75%

**Q.** Which peptide exchange yield does the source give for AILAPPAILK here?
**A.** ≥ 75%

**Q.** VIYNQTLMK was tested. Which peptide exchange yield did it give?
**A.** ≥ 75%

**Q.** How did the peptide exchange yield turn out when MIFSGVFLR was run?
**A.** ≥ 75%

**Q.** Which peptide exchange yield does the source give for LSGPVTFLR here?
**A.** 50 to 75%

**Q.** ILAPPAILK was tested. Which peptide exchange yield did it give?
**A.** ≥ 75%

**Q.** GVCSTLTIK was tested. Which peptide exchange yield did it give?
**A.** ≥ 75%

**Q.** Which peptide exchange yield does the source give for VIFLHQPPK here?
**A.** ≥ 75%

**Q.** With TVATQVATSK as the binder, how does the peptide exchange yield read?
**A.** 50 to 75%

**Q.** For MTFVPLLAR, which peptide exchange yield is on record?
**A.** ≥ 75%

**Q.** How did the peptide exchange yield turn out when MVNWSLTNK was run?
**A.** ≥ 75%

**Q.** For SLFGGLFTR, which peptide exchange yield is on record?
**A.** ≥ 75%

**Q.** Which peptide exchange yield does the source give for TTLENLPQK here?
**A.** 50 to 75%

**Q.** For SLATAISAK, which peptide exchange yield is on record?
**A.** 50 to 75%

**Q.** Which peptide exchange yield does the source give for ATLQAVTLYKK here?
**A.** ≥ 75%

**Q.** How did the peptide exchange yield turn out when GSCSFALSR was run?
**A.** ≥ 75%

**Q.** How did the peptide exchange yield turn out when GSLQTLPPK was run?
**A.** 50 to 75%

**Q.** For IIVPSFYK, which peptide exchange yield is on record?
**A.** 50 to 75%

**Q.** For MLSAQFILK, which peptide exchange yield is on record?
**A.** ≥ 75%

**Q.** With RILEVVRQPK as the binder, how does the peptide exchange yield read?
**A.** ≥ 75%

**Q.** How did the peptide exchange yield turn out when SVYMATTLK was run?
**A.** ≥ 75%

**Q.** For RLYSGSSFLY, which peptide exchange yield is on record?
**A.** ≥ 75%

**Q.** Which peptide exchange yield does the source give for LLFKGLMWK here?
**A.** ≥ 75%

**Q.** How did the peptide exchange yield turn out when ETYGTFVLR was run?
**A.** 50 to 75%

**Q.** Which peptide exchange yield does the source give for KVGAVVHLK here?
**A.** 50 to 75%

**Q.** For ASAIPAGAK, which peptide exchange yield is on record?
**A.** 50 to 75%

**Q.** Which peptide exchange yield does the source give for AVFLGNPSNQK here?
**A.** ≥ 75%

**Q.** Which peptide exchange yield does the source give for AVVSHFILY here?
**A.** 50 to 75%

**Q.** TTAAVYILK was tested. Which peptide exchange yield did it give?
**A.** 50 to 75%

**Q.** For KLIAGLIFLK, which peptide exchange yield is on record?
**A.** 50 to 75%

**Q.** RTLPLEGSPK was tested. Which peptide exchange yield did it give?
**A.** 50 to 75%

**Q.** With STQSSLLYLK as the binder, how does the peptide exchange yield read?
**A.** 50 to 75%

**Q.** SLFPYFLNK was tested. Which peptide exchange yield did it give?
**A.** ≥ 75%

**Q.** With ALAQGANLK as the binder, how does the peptide exchange yield read?
**A.** 50 to 75%
